Experimental data as given in patent US20190367631A1.

Key:
[1] = biological target: endogenously expressed human MSR1 on PMA-treated THP-1 cells (human) (UniProt P21757); experiment: confocal imaging, differentiated THP-1 cells, Alexa 488 secondary
[2] = biological target: endogenously expressed human MSR1 on PMA-treated THP-1 cells (human) (UniProt P21757); experiment: cell-based or functional assay
[3] = biological target: endogenously expressed human MSR1 on PMA-treated THP-1 cells (human) (UniProt P21757); experiment: ECL cell binding, PMA-treated THP-1 cells, 11 nM
[4] = biological target: full length human MSR1 with a C-terminal Myc tag, on HEK293.Myc.hMSR1 cells (human) (UniProt P21757); experiment: ECL cell binding, HEK293.Myc.hMSR1 cells, 11 nM
[5] = biological target: human MSR1 extracellular domain expressed with a N-terminal nonahistidine tag (human) (UniProt P21757); experiment: competition ELISA, plate-coated His9-hMSR1; 100 nM control antibody, competitor ligand Ac-LDL
[6] = biological target: human MSR1 extracellular domain expressed with a N-terminal nonahistidine tag (human) (UniProt P21757); experiment: competition ELISA, plate-coated His9-hMSR1; 300 nM control antibody, competitor ligand biot-AGE-BSA
[7] = biological target: human MSR1 extracellular domain expressed with a N-terminal nonahistidine tag (human) (UniProt P21757); experiment: competition ELISA, plate-coated His9-hMSR1; 1 µM control antibody, competitor ligand 10 nM Ox-LDL

human MSR1 extracellular domain expressed with a N-terminal nonahistidine tag (human), sequence (P21757 other isoform, or with tags, fused parts or gaps): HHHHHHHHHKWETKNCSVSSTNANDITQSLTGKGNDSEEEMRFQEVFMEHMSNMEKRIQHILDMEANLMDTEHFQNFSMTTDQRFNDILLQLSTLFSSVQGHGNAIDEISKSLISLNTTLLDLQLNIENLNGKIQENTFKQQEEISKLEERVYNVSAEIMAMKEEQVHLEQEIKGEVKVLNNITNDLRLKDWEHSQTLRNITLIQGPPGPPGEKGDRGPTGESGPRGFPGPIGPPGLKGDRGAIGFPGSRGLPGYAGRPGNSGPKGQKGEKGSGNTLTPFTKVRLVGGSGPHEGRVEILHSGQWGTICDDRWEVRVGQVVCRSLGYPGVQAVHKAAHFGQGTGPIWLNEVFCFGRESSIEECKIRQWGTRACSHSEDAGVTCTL
endogenously expressed human MSR1 on PMA-treated THP-1 cells (human), sequence (P21757 whole entry): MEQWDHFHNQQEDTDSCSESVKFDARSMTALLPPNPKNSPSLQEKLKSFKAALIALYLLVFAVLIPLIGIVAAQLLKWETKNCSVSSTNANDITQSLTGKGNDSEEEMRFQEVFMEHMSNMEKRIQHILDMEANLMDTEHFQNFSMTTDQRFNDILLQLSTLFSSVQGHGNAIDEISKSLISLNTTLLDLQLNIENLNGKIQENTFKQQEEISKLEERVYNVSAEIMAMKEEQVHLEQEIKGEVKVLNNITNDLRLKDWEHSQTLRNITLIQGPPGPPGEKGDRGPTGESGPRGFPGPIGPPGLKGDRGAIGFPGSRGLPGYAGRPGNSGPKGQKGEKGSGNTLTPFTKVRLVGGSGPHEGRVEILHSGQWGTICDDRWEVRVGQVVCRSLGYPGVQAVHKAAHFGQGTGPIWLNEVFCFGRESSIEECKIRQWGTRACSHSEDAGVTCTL
full length human MSR1 with a C-terminal Myc tag, on HEK293.Myc.hMSR1 cells (human), sequence (P21757 whole entry, the tested form may be a part): as the sequence (P21757 whole entry) above

Substance	ratio of binding signal (RLU) to isotype control [3]	ratio of binding signal (RLU) to isotype control [4]	% Blocking [5]	% Blocking [6]	% Blocking [7]	also measured
Isotype control (antibody)						Total Binding at 4° C. (RFU) [1]: 186000 RFU; Total Binding at 37° C. (RFU) [1]: 1.09e+06 RFU; Total Internalized RFU [2]: 1.7e+06 RFU
hIgG1 isotype control (antibody)			-8%	4%	3%	

Further lines, with some results ahead:

ratio of binding signal (RLU) to isotype control [3]	ratio of binding signal (RLU) to isotype control [4]	% Blocking [5]	% Blocking [6]	% Blocking [7]	Substance	also measured
1 fold	1 fold				hIgG1 Isotype Control (antibody)	
		-4%	7%	16%	mIgG1 isotype control (antibody)	
1 fold	1 fold				mIgG Isotype Control (antibody)	
